Data from US20130034559A1 (AstraZeneca / MedImmune, published 2013).
Positions count from the first letter of the chain named.

T1: human B7-DC on 293T cells (human, UniProt Q9BQ51 20-273)
T1 construct: whole, on cells; also called PD-L2
T1 sequence (looked up): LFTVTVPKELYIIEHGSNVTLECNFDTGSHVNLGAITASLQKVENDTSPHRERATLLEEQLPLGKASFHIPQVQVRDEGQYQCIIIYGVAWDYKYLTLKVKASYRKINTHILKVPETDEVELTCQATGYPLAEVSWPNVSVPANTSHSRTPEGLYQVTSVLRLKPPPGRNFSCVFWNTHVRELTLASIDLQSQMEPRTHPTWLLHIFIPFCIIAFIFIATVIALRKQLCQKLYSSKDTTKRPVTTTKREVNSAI

B1: 3.18G1 (antibody, V domains shown)
VH: EVQLLESGGDLVQPGGSLRLSCAASGFTFNSYAMSWVRQAPGKGLEWVSTISGSGGFTFSADSVKGRFTISRDNSKNTLFLQMNSLRVEDSAVYSCAKVLVGFNNGCWDYWGQGTLVTVSS
VL: SYVLTQPPSVSVAPGQTARITCGGNNIGSKSVHWYQQKPGQAPVLVVYDDSDRPSGIPERFSGSNSGNTATLTISRVEAGDEADYYCQVWDSSNDHVVFGGGTKLTVL
notes: also called mAb 3.18G1
B2: 2.7A4 (antibody, IgG2, V domains shown)
VH: EVQLVESGGGLVKPGGSLRLSCAASGFTFSTYSMNWVRQAPGKGLEWVSSISSSGDYIYYADSVKGRFTISRDNAKNSLFLQMNSLKAEDTAVYYCARDLVTSMVAFDYWGQGTLVTVSS
VL: SYELTQPPSVSVSPGQAARITCSGDALPQKYVFWYQQKSGQAPVLVIYEDSKRPSGIPERFSGSSSGTMATLTISGAQVEDEADYYCYSTDRSGNHRVFGGGTRLTVL
notes: also called mAb 2.7A4
B3: 3.15G8 (antibody, IgG4, V domains shown)
VH: EVQLVESGGGLVQPGGSLRLSCAASGFTFSSYWMSWVRQAPGKGLEWVANIKQDGGEKYYVDSVKGRFTISRDNAKNSLFLQMNSLRAEDTAVYYCARVQLYSDYFDYWGQGTLVTVSS
VL: DIQMTQSPSSVSASVGDRVTITCRASQGISSWLAWYQQKSGKAPKLLIYAASGLQSGVPSRFSGSGSGTDFTLTISSLQPEDLATYYCQQSHSLPPTFGQGTKVEIK
notes: also called mAb 3.15G8
B4: 2.20A8 (antibody, IgG2, V domains shown)
VH: EVQLLESGGGLVQPGGSLRLSCAASGFTFSNYAMSWVRQAPGKGLEWVSAIRGSGGSTYYADSVKGRFTISRDNSKNTLYLQMNSLRAEDTAVYYCAKDLHYDSSGYLDYWGQGTLVTVSS
VL: B3 VL with S30R, S40P, A51I, G53R, L83F, S91A, H92N, L94F, P96L, Q100G
notes: also called mAb 2.20A8
B5: 2.9D10 (antibody, V domains shown)
VH: EVQLVESGGGLVQPGGSLRLSCAASGFTFSSYWMSWVRQAPGKGLEWVANIKQDGGEQYYVDSVKGRFTISRDNAKNSLYLQMNSLRAEDTAVYYCARDWNYGYYDMDVWGQGTTVTVSS
VL: EIVLTQSPGTLSLSPGERATLSCRASQSVSSNYLAWFQQKPGQAPRLLIFGTSSRATGIPDRFSGSGSGTDFTLTISRLEPEDFAVYYCQQYGSSIFTFGPGTKVDIK
notes: Tested as hybridoma supernatant or purified antibody; also called mAb 2.9D10
B6: 2.14H9 (antibody, IgG2, V domains shown)
VH: EVQLVESGGGLVQPGGSLRLSCAASGFTFSRYWMSWVRQAPGKGLEWVANIKQDGSEKYYVDSVKGRFTISRDNAKNSLYLQMNSLRAEDTAVYYCAREGGWFGELAFDYWGQGTLVTVSS
VL: EIVLTQSPGTLSLSPGERATLSCRASQRVSSSYLAWYQQKPGQAPRLLIYDASSRATGIPDRFSGSGSGTDFTLTISRLEPEDFAVYYCQQYGSLPWTFGQGTEVEIK
notes: also called mAb 2.14H9

molecular target: T2, mouse B7-H1 on J558 cells (mouse, UniProt Q9EP73 19-290); assay: FACS on J558 cells expressing mouse B7-H1
T2 construct: whole, on cells
T2 sequence (Q9EP73 19-290): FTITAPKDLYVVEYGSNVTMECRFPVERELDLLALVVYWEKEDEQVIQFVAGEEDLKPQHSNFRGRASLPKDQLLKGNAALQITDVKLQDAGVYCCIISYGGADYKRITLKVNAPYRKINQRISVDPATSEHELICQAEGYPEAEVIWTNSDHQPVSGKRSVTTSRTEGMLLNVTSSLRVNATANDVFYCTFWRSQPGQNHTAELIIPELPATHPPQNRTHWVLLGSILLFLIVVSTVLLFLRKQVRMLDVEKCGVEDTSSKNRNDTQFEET
Method: (§1) The ability of the purified antibodies to bind to human B7-H1, B7-DC, mouse B7H1 and cynomolgus monkey B7-H1 was determined by FACS analysis. […] Mouse J558 cells expressing mouse B7-H1 were obtained from ATCC (catalog #TIB-6). Cells were resuspended in PBS containing 2% FBS (FACS buffer) and seeded at 50000 cells/well into V-bottomed plates. Anti-B7-H1 and isotype control antibodies diluted in FACS buffer were added at a final concentration of 5 μg/ml and plates were incubated for 1 h at 4° C. […] Mouse anti-human B7-DC (PD-L2) antibody (R&D systems cat #MAB1224, detected with goat anti-mouse Fc Cy5, Jackson Immunoresearch) was used as a positive control for B7-DC expression. PE-conjugated rat anti-mouse B7-H1 antibody (eBioscience, clone M1H5, detected with goat anti-rat Fc Cy5, Jackson Immunoresearch) was used as a positive control for mouse B7-H1 expression.

binding result | Binder
no binding (tested: 5 µg/ml) | B1
no binding (tested: 5 µg/ml) | B2
no binding (tested: 5 µg/ml) | B3
no binding (tested: 5 µg/ml) | B4
no binding (tested: 5 µg/ml) | B5
no binding (tested: 5 µg/ml) | B6

molecular target: T1, human B7-DC on 293T cells; assay: FACS on 293T cells transfected with human B7-DC
Method: as §1

binding result | Binder
no binding (tested: 5 µg/ml) | B1
no binding (tested: 5 µg/ml) | B2
no binding (tested: 5 µg/ml) | B3
no binding (tested: 5 µg/ml) | B4
no binding (tested: 5 µg/ml) | B5
no binding (tested: 5 µg/ml) | B6

molecular target: T3, human B7-H1 expressed on cells (human, UniProt Q9NZQ7 19-290); assay: FACS, 1 µg/ml antibody, anti-CD3-activated human T cells
T3 construct: whole, on cells; also called PD-L1; huB7-H1
T3 sequence (Q9NZQ7 19-290): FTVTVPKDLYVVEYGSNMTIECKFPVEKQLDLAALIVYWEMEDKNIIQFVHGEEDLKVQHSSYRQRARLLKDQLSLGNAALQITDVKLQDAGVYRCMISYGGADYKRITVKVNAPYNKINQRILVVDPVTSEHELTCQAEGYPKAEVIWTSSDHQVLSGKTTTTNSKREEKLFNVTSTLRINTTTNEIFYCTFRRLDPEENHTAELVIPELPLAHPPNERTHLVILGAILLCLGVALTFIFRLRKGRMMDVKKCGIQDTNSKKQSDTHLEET
Method: 96-well high binding plates were incubated with 100 μl/well of anti-CD3 antibody diluted at 1 ug/ml in PBS (OKT3 clone, eBioscience, catalog #160037) at 4 C overnight. Human T cells were isolated from frozen leukopack using T cell enrichment kit (StemCell Technologies, catalog #19051). Anti-CD3 mAb coated plates were washed with PBS and purified T cells were added in 200 ul of ICM media at 360000 cells/well and cultured for 72 hours. T cells were then harvested, washed in FACS buffer and mixed with diluted purified anti-B7-H1 antibodies or irrelevant human IgG2 or IgG4 antibodies at final concentration of 1 ug/ml in 96-well V-bottom assay plate (50 ul/well). […] Cells were incubated for 30 min at 4° C. before being washed again with FACS buffer and being read on a FACSCalibur instrument. Live lymphocyte population was selected for analysis based on forward and side scatter as well as negative staining for 7-AAD.

geo mean | Binder
45 | B1
49 | B2
48 | B3
41 | B4
49 | B5

molecular target: T2, mouse B7-H1 on J558 cells; assay: FACS, 5 µg/ml antibody, J558 cells expressing mouse B7-H1
Method: as §1

geo mean | Binder
3.2 | B1
3.2 | B2
3.2 | B3
3.3 | B4
3.2 | B5
3 | B6

molecular target: T3, human B7-H1 expressed on cells; assay: FMAT, hybridoma supernatant, 293T cells expressing human B7-H1
Method: (§2) Immediately after plating, 10 μl/well of hybridoma supernatants were added and plates incubated for 1.5 hr at room temperature.

Count | FL1 | FL1 × count | Binder
21 | 10900 | 228000 | B1
37 | 6980 | 258000 | B2
22 | 8810 | 194000 | B3
34 | 10300 | 350000 | B4
22 | 7180 | 158000 | B5

molecular target: T1, human B7-DC on 293T cells; assay: FACS, 5 µg/ml antibody, 293T cells transfected with human B7-DC
Method: as §1

geo mean | Binder
9.7 | B1
10.5 | B2
10.1 | B3
9.5 | B4
8.7 | B5
11.4 | B6

molecular target: T3, human B7-H1 expressed on cells; assay: FACS, 5 µg/ml antibody, 293T cells transfected with human B7-H1
Method: as §1

geo mean | Binder
1540 | B1
754 | B2
1180 | B3
463 | B4
463 | B5

molecular target: T4, cynomolgus monkey B7-H1 expressed on cells (cynomolgus monkey, UniProt G7PSE7 19-290); assay: FACS, 1 µg/ml antibody, anti-CD3-activated cynomolgus monkey T cells
T4 construct: whole, on cells; also called cyno B7-H1; cynomologus B7-H1
T4 sequence (G7PSE7 entry or part of it): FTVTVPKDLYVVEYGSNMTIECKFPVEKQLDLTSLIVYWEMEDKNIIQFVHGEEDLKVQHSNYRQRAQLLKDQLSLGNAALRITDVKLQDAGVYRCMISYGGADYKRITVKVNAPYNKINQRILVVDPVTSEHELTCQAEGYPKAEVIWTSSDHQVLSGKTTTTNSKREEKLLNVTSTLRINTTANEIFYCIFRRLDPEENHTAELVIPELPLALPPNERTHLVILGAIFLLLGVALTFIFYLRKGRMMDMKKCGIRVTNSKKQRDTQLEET
Method: For activation of cynomolgus monkey T cells 96-well high binding plates were incubated with 100 μl/well of goat anti-mouse IgG Fc antibody diluted at 1 ug/ml in PBS at 4 C overnight. […] Cynomolgus monkey PBMC were isolated from peripheral blood (Bioreclamation, catalog #CYNWBCPT). Anti-CD3 mAb coated plates were washed with PBS and isolated PBMC were added in 200 ul of ICM media at ˜200000 cells/well and cultured for 72 hours. Cells were then harvested, washed in FACS buffer and mixed with diluted purified anti-B7-H1 antibodies or irrelevant human IgG2 or IgG4 antibodies at a final concentration of 1 ug/ml in 96-well V-bottom assay plate (50 ul/well). […] Cells were incubated for 1 hour at 4° C. before being washed again with FACS buffer and being read on a FACSCalibur instrument. Monkey T lymphocyte population was selected for analysis based on forward and side scatter as well as positive staining for CD3 marker and negative staining for 7-AAD.

geo mean | Binder
94.6 | B1
104 | B2
92.8 | B3
80.7 | B4
107 | B5
106 | B6

molecular target: T4, cynomolgus monkey B7-H1 expressed on …; assay: FMAT, hybridoma supernatant, 293T cells expressing cynomolgus monkey B7-H1
Method: as §2

Count | FL1 | FL1 × count | Binder
66 | 10300 | 682000 | B1
59 | 8700 | 513000 | B2
64 | 8650 | 553000 | B3
65 | 7930 | 515000 | B4
54 | 5530 | 298000 | B5
56 | 6780 | 380000 | B6

molecular target: T3, human B7-H1 expressed on cells; assay: FACS competition: inhibition of biotinylated PD-1/Fc (10 ug/ml) binding to human B7-H1 on ES-2 cells
Method: Briefly, 50000 cells/well were plated in 50 μl of PBS into wells of a 384-well tissue culture plate (Corning Costar, catalog #3712). Next, 50 μl/well of a diluted monoclonal antibody was added at final concentration of […], 0.00016 nM and plates were incubated at 4 C for 1 hour. […] Cells were washed once and 100 μl/well of Cy5-conjugated streptavidin was added and plates were incubated at 4 C for 15 min before being washed again with PBS containing 2% FCS and being read on a FACSCalibur instrument.

IC50 | Binder
140 pM | B1
77 pM | B2
148 pM | B3
198 pM | B4
109 pM | B5

molecular target: T3, human B7-H1 expressed on cells; assay: cell ELISA: biotinylated PD-1/Fc (1.25 ug/ml) on CHO-huB7-H1 cells after hybridoma supernatant (1:5); 0% = 100% inhibition
Method: 25000 cells/well were plated in 50 μl of media into wells of a 384-well tissue culture plate (Corning Costar, catalog #3712). Next day, 50 μl/well of diluted (1:5) hybridoma supernatant was added and plates were incubated at 4 C for 1 hour on a shaker. […] Cells were washed and fixed in 100 ul of PBS containing 3.7% formaldehyde and 3% bovine serum albumin for 20 min at room temperature. Cells were washed and incubated in 100 ul of PBS containing 0.6% H2O2 and 3% bovine serum albumin for 10 min at room temperature. Cells were washed and incubated in 50 μl of horseradish peroxidase-conjugated streptavidin diluted at 1:4000 for 30 min at 4° C. Cells were washed before signal detection.

PD1-Fc binding to CHO-huB7-H1 cells (% of max) | Binder
5 % of max | B1
0 % of max | B2
4 % of max | B3
0 % of max | B4
-5 % of max | B5
